Assay [1] addresses T1, purified AFDN FHA domain, C-terminally extended (371-580) (mouse, UniProt Q9QZQ1 371-580).
T1 construct: 15N-labelled in one NMR experiment; GST probably cut off with thrombin; also called extended FHA domain; source: E. coli BL21, purified (glutathione resin, thrombin cleavage or glutathione elution, SEC)
T1 sequence (looked up): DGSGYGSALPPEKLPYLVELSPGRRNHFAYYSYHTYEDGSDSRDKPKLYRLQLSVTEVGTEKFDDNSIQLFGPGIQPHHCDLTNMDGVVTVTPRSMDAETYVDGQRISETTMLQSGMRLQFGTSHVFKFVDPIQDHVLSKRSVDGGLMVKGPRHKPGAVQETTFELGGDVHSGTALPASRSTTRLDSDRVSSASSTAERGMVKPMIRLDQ
Kind of assay: ITC; MicroCal ITC200, 25 °C, 20 mM Tris-HCl pH 7.5, 150 mM NaCl, 1 mM DTT. Conditions: both partners purified. A general note: Isothermal titration calorimetry measures the heat released or taken up as one component is titrated into another.

The target in assay [2] is T1, purified AFDN FHA domain, C-terminally …. Kind of assay: ITC; MicroCal ITC200, 25 °C, 20 mM Tris-HCl pH 7.5, 20 mM NaCl, 1 mM DTT. As to conditions: both partners purified.

For orientation: Kd means the equilibrium constant for the complex coming apart.

B1: purified SCRIB PDZ1 domain (718-820) (domain or fragment)
chain: not shown
notes: 15N-labelled in one NMR experiment; GST probably cut off with thrombin (it was mixed with GST fusions on glutathione beads); source: E. coli BL21, purified (glutathione resin, thrombin cleavage or glutathione elution, SEC)
On to B1, for which the Kd in assay [1] came out at 14.8 µM; in assay [2] it was 5.7 µM.

The record behind these values is publication PMC9355967 (Nature Communications, 2022).
